Experimental data published in US20170081400A1 (CEPHALON, published 2017).

T1: human TL1A extracellular domain with N-terminal HIS and FLAG tag (human, UniProt O95150 72-251)
T1 construct: whole entry named. ~70 kDa fraction purified by gel filtration
T1 sequence: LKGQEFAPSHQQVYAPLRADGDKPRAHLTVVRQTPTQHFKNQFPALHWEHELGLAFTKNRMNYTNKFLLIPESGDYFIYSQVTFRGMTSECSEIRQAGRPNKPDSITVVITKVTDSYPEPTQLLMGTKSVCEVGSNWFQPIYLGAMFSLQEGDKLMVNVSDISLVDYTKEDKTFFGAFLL

T2: human TL1A extracellular domain with N-terminal HIS and FLAG tag (human) (UniProt O95150)
T2 sequence: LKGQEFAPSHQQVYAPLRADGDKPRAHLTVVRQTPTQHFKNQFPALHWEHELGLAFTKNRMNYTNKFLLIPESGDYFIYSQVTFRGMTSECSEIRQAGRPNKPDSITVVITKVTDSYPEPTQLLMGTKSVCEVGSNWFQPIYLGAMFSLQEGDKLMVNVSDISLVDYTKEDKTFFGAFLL

T3: human TL1A extracellular domain with N-terminal HIS and FLAG tag (human, UniProt O95150 72-251)
T3 construct: the whole entry is named; also called TNFSF15
T3 sequence: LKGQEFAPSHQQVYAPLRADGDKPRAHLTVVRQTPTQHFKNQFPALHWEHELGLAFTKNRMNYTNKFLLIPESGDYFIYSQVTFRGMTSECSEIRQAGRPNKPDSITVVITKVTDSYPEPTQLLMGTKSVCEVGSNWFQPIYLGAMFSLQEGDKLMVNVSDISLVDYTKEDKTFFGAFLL


Tests used:
[1] = molecular target: T1, human TL1A extracellular domain with …; assay: SPR run 3; supernatant on Protein A; TL1A 10 ug/mL; timepoint 590
Excerpt: (§1) 1.5. Antibody expression and antigen binding as determined by SPR. Using a CM5 sensor chip (GE Healthcare) Protein A (Pierce) was coupled to the chip surface using an amine coupling kit (GE Healthcare). Protein A was coupled on flow cell 1 and 2 (or alternatively 3 and 4) using a BIACORE® T200. […] The amount of supernatant or purified protein (as well as the concentration) injected during the capture stage varied between runs and is specified in the header of the Tables 3-11. At the end of injection of the supernatant or purified antibody the change in response units was measured. This value was reported as Capture Level in Tables 3-11. […] The response units were measured prior to the end of the dissociation phase. […] The sensorgrams were double referenced (flow cell 2 is subtracted from flow cell 1 and a buffer blank). As there were a large number of antibody variants to screen, these were screened across different runs (Tables 3-11). […] A summary of the conditions used in each run is below:
(§2) 2.1. […] In some experiment the antibodies were purified using Protein A chromatography (See 1.4) and purified antibodies were used in BIACORE® (GE Healthcare) experiments.

[2] = molecular target: T2, human TL1A extracellular domain with N-terminal HIS and FLAG tag (human); assay: cell-based or functional assay
[3] = molecular target: T1, human TL1A extracellular domain with …; assay: SPR run 3; supernatant on Protein A; TL1A 10 ug/mL; timepoint 59
Excerpt: as §1, §2

[4] = molecular target: T3, human TL1A extracellular domain with …; assay: SPR Run 9, antibody on Protein A, TL1A 5 ug/mL, timepoint 44
Excerpt: as §1, §2

[5] = molecular target: T3, human TL1A extracellular domain with …; assay: SPR Run 9, antibody on Protein A, TL1A 5 ug/mL, timepoint 590
Excerpt: as §1, §2

[6] = molecular target: T3, human TL1A extracellular domain with …; assay: cell-based or functional assay

| TL1A Binding Level (Early) [4] [RU] | TL1A Binding Level (Late) [5] [RU] | Binder | other results |
| --- | --- | --- | --- |
| 126 | 120 | 320-612 (antibody, human IgG1, name in Kabat numbering, V domains shown, full-length human IgG1, lambda) VH: QVQLVQSGAEVKKPGASVKVSCKASGYTFTSYDINWVRQAPGQGLEWMGWLNPNSGNTGYAQKFQGRVTMTADRSTSTAYMELSSLRSEDTAVYYCAREVPETAAFEYWGQGTLVTVSS VL: QSVLTQPPSVSGAPGQRVTISCTSSSSDIGAGLGVHWYQQLPGTAPKLLIEGYYNRPSGVPDRFSGSKSGTSASLTITGLLPEDEGDYYCQSWDYTLSALFGGGTKLTVLG | – |
| 126 | 118 | 320-603 (antibody, human IgG1, name in Kabat numbering, V domains shown, full-length human IgG1, lambda) VH: QVQLVQSGAEVKKPGASVKVSCKASGYTFTSYDINWVRQAPGQGLEWMGWLNPNSGYTGYAQKFQGRVTMTADRSTSTAYMELSSLRSEDTAVYYCAREVPETAAFEYWGQGTLVTVSS VL: QSVLTQPPSVSGAPGQRVTISCTSSSSDIGAGLGVLWYQQLPGTAPKLLIEGYYNRPSGVPDRFSGSKSGTSASLTITGLLPEDEGDYYCQSFDGTLSALFGGGTKLTVLG | – |
| 120 | 112 | 320-616 (antibody, human IgG1, name in Kabat numbering, V domains shown, full-length human IgG1, lambda) VH: QVQLVQSGAEVKKPGASVKVSCKASGYTFTSYDINWVRQAPGQGLEWMGWLNPNSGYTGYAQKFQGRVTMTADRSTSTAYMELSSLRSEDTAVYYCAREVPETAAFEYWGQGTLVTVSS VL: QSVLTQPPSVSGAPGQRVTISCTSSSSDIGAGLGVHWYQQLPGTAPKLLIEGYYNRPSGVPDRFSGSKSGTSASLTITGLLPEDEGDYYCQSYDATLSALFGGGTKLTVLG | – |
| 125 | 120 | 320-605 (antibody, human IgG1, name in Kabat numbering, V domains shown, full-length human IgG1, lambda) VH: QVQLVQSGAEVKKPGASVKVSCKASGYTFTSYDINWVRQAPGQGLEWMGWLNPNSGYTGYAQKFQGRVTMTADRSTSTAYMELSSLRSEDTAVYYCAREVPETAAFEYWGQGTLVTVSS VL: QSVLTQPPSVSGAPGQRVTISCTSSSSDIGAALGVHWYQQLPGTAPKLLIEGYYNRPSGVPDRFSGSKSGTSASLTITGLLPEDEGDYYCQSFDGTLSALFGGGTKLTVLG | – |
| 131 | 125 | 320-602 (antibody, human IgG1, name in Kabat numbering, V domains shown, full-length human IgG1, lambda) VH: QVQLVQSGAEVKKPGASVKVSCKASGYTFTSYDINWVRQAPGQGLEWMGWLNPNSGYTGYAQKFQGRVTMTADRSTSTAYMELSSLRSEDTAVYYCAREVPETAAFEYWGQGTLVTVSS VL: QSVLTQPPSVSGAPGQRVTISCTSSSSDIGAGQGVHWYQQLPGTAPKLLIEGYYNRPSGVPDRFSGSKSGTSASLTITGLLPEDEGDYYCQSFDGTLSALFGGGTKLTVLG | – |
| 113 | 108 | 320-615 (antibody, human IgG1, name in Kabat numbering, V domains shown, full-length human IgG1, lambda) VH: QVQLVQSGAEVKKPGASVKVSCKASGYTFTSYDINWVRQAPGQGLEWMGWLNPNSGYTGYAQKFQGRVTMTADRSTSTAYMELSSLRSEDTAVYYCAREVPETAAFEYWGQGTLVTVSS VL: QSVLTQPPSVSGAPGQRVTISCTSSSSDIGAGLGVHWYQQLPGTAPKLLIEGYYNRPSGVPDRFSGSKSGTSASLTITGLLPEDEGDYYCQSYDYTLSALFGGGTKLTVLG | – |
| 122 | 111 | 320-614 (antibody, human IgG1, name in Kabat numbering, V domains shown, full-length human IgG1, lambda) VH: QVQLVQSGAEVKKPGASVKVSCKASGYTFTSYDINWVRQAPGQGLEWMGWLNPNSGYTGYAQKFQGRVTMTADRSTSTAYMELSSLRSEDTAVYYCAREVPETAAFEYWGQGTLVTVSS VL: QSVLTQPPSVSGAPGQRVTISCTSSSSDIGAGLGVHWYQQLPGTAPKLLIEGYYNRPSGVPDRFSGSKSGTSASLTITGLLPEDEGDYYCQSYDKTLSALFGGGTKLTVLG | – |

The remaining lines, values behind:

| Binder | TL1A Binding Level (Early) [4] [RU] | TL1A Binding Level (Late) [5] [RU] | other results |
| --- | --- | --- | --- |
| 320-302 (antibody, human IgG1, name in Kabat numbering, V domains shown, human IgG1, lambda) VH: QVQLVQSGAEVKKPGASVKVSCKASGYTFTSYDINWVRQAPGQGLEWMGWLNPNSGNTGYAQKFQGRVTMTADRSTSTAYMELSSLRSEDTAVYYCAREVPETAAFEYWGQGTLVTVSS VL: QSVLTQPPSVSGAPGQRVTISCTSSSSDIGAGLGVAWYQQLPGTAPKLLIEGYYNRPSGVPDRFSGSKSGTSASLTITGLLPEDEGDYYCQSYDGTLSALFGGGTKLTVLG | – | – | TL1A Binding Level (Late) [1]: 74 RU; Antibody IC50, TL1A induced caspase potency assay in TF-1 cells [2]: 0.01 µg/mL; Fold improvement over 320-179, TL1A induced caspase potency assay in TF-1 cells [2]: 2 fold; TL1A Binding Level (Early) [3]: 99 RU |
| 320-598 (antibody, human IgG1, name in Kabat numbering, V domains shown, full-length human IgG1, lambda) VH: QVQLVQSGAEVKKPGASVKVSCKASGYTFTSYDINWVRQAPGQGLEWMGWLNPNSGNTGYAQKFQGRVTMTADRSTSTAYMELSSLRSEDTAVYYCAREVPETAAFEYWGQGTLVTVSS VL: QSVLTQPPSVSGAPGQRVTISCTSSSSDIGAGLGVLWYQQLPGTAPKLLIEGYYNRPSGVPDRFSGSKSGTSASLTITGLLPEDEGDYYCQSFDGTLSALFGGGTKLTVLG | 112 | 101 | – |
| 320-307 (antibody, human IgG1, name in Kabat numbering, V domains shown, human IgG1, lambda) VH: QVQLVQSGAEVKKPGASVKVSCKASGYTFTSYDINWVRQAPGQGLEWMGWLNPNSGNTGYAQKFQGRVTMTADRSTSTAYMELSSLRSEDTAVYYCAREVPETAAFEYWGQGTLVTVSS VL: QSVLTQPPSVSGAPGQRVTISCTSSSSDIGAGLGVLWYQQLPGTAPKLLIEGYYNRPSGVPDRFSGSKSGTSASLTITGLLPEDEGDYYCQSYDGTLSALFGGGTKLTVLG | – | – | TL1A Binding Level (Late) [1]: 200 RU; Antibody IC50, TL1A induced caspase potency assay in TF-1 cells [2]: 0.01 µg/mL; Fold improvement over 320-179, TL1A induced caspase potency assay in TF-1 cells [2]: 4 fold; TL1A Binding Level (Early) [3]: 216 RU |
| 320-601 (antibody, human IgG1, name in Kabat numbering, V domains shown, full-length human IgG1, lambda) VH: QVQLVQSGAEVKKPGASVKVSCKASGYTFTSYDINWVRQAPGQGLEWMGWLNPNSGYTGYAQKFQGRVTMTADRSTSTAYMELSSLRSEDTAVYYCAREVPETAAFEYWGQGTLVTVSS VL: QSVLTQPPSVSGAPGQRVTISCTSSSSDIGAGLGVHWYQQLPGTAPKLLIEGYYNRPSGVPDRFSGSKSGTSASLTITGLLPEDEGDYYCQSFDGTLSALFGGGTKLTVLG | 121 | 120 | Antibody IC50, TL1A induced caspase potency assay in TF-1 cells [6]: 0.002 µg/mL; Fold improvement over 320-179, TL1A induced caspase potency assay in TF-1 cells [6]: 10 fold |
| 320-600 (antibody, human IgG1, name in Kabat numbering, V domains shown, full-length human IgG1, lambda) VH: QVQLVQSGAEVKKPGASVKVSCKASGYTFTSYDINWVRQAPGQGLEWMGWLNPNSGNTGYAQKFQGRVTMTADRSTSTAYMELSSLRSEDTAVYYCAREVPETAAFEYWGQGTLVTVSS VL: QSVLTQPPSVSGAPGQRVTISCTSSSSDIGAALGVHWYQQLPGTAPKLLIEGYYNRPSGVPDRFSGSKSGTSASLTITGLLPEDEGDYYCQSFDGTLSALFGGGTKLTVLG | 111 | 104 | – |
| 320-597 (antibody, human IgG1, name in Kabat numbering, V domains shown, full-length human IgG1, lambda) VH: QVQLVQSGAEVKKPGASVKVSCKASGYTFTSYDINWVRQAPGQGLEWMGWLNPNSGNTGYAQKFQGRVTMTADRSTSTAYMELSSLRSEDTAVYYCAREVPETAAFEYWGQGTLVTVSS VL: QSVLTQPPSVSGAPGQRVTISCTSSSSDIGAGQGVHWYQQLPGTAPKLLIEGYYNRPSGVPDRFSGSKSGTSASLTITGLLPEDEGDYYCQSFDGTLSALFGGGTKLTVLG | 115 | 105 | – |
| 320-599 (antibody, human IgG1, name in Kabat numbering, V domains shown, full-length human IgG1, lambda) VH: QVQLVQSGAEVKKPGASVKVSCKASGYTFTSYDINWVRQAPGQGLEWMGWLNPNSGNTGYAQKFQGRVTMTADRSTSTAYMELSSLRSEDTAVYYCAREVPETAAFEYWGQGTLVTVSS VL: QSVLTQPPSVSGAPGQRVTISCTSSSSDIGAGSGVHWYQQLPGTAPKLLIEGYYNRPSGVPDRFSGSKSGTSASLTITGLLPEDEGDYYCQSFDGTLSALFGGGTKLTVLG | 113 | 103 | – |
| 320-596 (antibody, human IgG1, name in Kabat numbering, V domains shown, full-length human IgG1, lambda) VH: QVQLVQSGAEVKKPGASVKVSCKASGYTFTSYDINWVRQAPGQGLEWMGWLNPNSGNTGYAQKFQGRVTMTADRSTSTAYMELSSLRSEDTAVYYCAREVPETAAFEYWGQGTLVTVSS VL: QSVLTQPPSVSGAPGQRVTISCTSSSSDIGAGLGVHWYQQLPGTAPKLLIEGYYNRPSGVPDRFSGSKSGTSASLTITGLLPEDEGDYYCQSFDGTLSALFGGGTKLTVLG | 95 | 85 | – |
